In test [1] the target is T1, human transferrin receptor (TfR) (human, UniProt P02786 1-760).
T1 construct: whole, on cells; Always the endogenous receptor on human tumour cell lines; no recombinant TfR was used; also called TfR/CD71
Kind of test: FACS on LS-174T cells, scFv on phage, anti-M13 detection (FIG. 7).

Test [2] addresses T1, human transferrin receptor (TfR). Description: cell-based or functional assay.
Test [3] deals with T2, murine TfR (murine, UniProt Q62351 1-763).
T2 construct: whole, on cells; Endogenous receptor on murine cell lines; also called murine transferrin receptor
T2 sequence (Q62351 whole entry): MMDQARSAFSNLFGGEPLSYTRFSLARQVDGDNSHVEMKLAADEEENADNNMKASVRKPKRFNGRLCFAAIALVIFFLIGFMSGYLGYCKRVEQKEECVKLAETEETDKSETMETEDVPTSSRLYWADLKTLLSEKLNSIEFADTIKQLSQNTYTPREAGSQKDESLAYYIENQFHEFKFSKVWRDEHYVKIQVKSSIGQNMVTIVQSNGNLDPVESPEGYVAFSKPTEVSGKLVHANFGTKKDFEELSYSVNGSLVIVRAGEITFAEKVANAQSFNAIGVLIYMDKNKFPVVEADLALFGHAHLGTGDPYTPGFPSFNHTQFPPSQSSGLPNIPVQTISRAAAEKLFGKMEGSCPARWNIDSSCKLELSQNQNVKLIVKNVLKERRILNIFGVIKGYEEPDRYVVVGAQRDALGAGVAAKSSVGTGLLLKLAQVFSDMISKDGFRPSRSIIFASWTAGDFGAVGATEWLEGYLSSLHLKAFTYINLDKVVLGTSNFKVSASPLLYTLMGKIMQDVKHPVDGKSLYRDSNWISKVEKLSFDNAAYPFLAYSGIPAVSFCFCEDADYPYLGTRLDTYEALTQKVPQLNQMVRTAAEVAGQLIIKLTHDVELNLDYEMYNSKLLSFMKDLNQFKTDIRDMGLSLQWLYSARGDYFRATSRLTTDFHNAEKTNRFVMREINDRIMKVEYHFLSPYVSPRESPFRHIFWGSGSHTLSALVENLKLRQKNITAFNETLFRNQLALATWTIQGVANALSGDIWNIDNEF
Description: FACS on murine FMA3 cells, 50 µg/ml, penta-His detection (FIG. 16-d right).

The target in test [4] is T2, murine TfR. Kind of test: flow cytometry on murine Ba/F3 cells, 10 µg/ml, anti-human Fc-phycoerythrin (FIG. 18 (b)). On the technique in general: In flow cytometry, cells or beads pass a laser one at a time.

T1 sequence (P02786 whole entry): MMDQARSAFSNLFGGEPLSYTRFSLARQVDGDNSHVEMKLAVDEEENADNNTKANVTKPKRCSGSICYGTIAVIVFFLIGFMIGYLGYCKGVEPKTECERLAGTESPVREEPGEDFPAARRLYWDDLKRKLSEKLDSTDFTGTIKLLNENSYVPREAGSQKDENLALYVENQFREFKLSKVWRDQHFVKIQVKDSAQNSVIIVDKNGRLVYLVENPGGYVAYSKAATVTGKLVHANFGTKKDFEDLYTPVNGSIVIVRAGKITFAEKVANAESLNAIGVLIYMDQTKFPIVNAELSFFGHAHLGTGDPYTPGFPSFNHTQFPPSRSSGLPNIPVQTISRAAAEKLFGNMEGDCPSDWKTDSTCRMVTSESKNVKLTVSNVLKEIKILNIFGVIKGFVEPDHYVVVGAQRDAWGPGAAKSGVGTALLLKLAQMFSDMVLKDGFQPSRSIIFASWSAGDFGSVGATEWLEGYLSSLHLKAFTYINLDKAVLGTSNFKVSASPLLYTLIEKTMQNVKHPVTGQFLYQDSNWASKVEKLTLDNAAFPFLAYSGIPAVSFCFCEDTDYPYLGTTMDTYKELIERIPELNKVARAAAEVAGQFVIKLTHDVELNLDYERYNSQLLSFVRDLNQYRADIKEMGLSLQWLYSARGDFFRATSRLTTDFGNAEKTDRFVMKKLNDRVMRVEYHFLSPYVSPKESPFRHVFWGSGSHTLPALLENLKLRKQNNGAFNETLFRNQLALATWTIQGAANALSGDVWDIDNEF

B1: scFv-3 GH9 (scFv)
scFv: QVQLAESGGGLVKPGGSLRLSCAASGFTFSDYYMSWIRQAPGKGLEWVSYISTSGSSIYYVDSVKGRFTISRDNAKNSLYLQMDSLRDDDTAVYYCARDLHGDYAFDSWGQGTLVTVSSGGGGSGGGGSGGGGSSELTQDPAVSVALGQTVRITCQGDSLRSYYASWYQQKPGQAPVLVIYGKNNRPSGIPDRFSGSKSGNSASLDISGLQSEDEADYYCATWDDNLSGPIFGGGTKVTVLG
notes: Monovalent human scFv, about 28 kDa; on phage or soluble depending on the assay; tags not described; also called anti-TfR scFv
Turning to B1, the binding result in test [1] is reported as “binds”.

B2: scFv-3TF12 (scFv)
scFv: QVQLQESGGGLVQPGGSLRLSCAASGFSFNTYTMHWVRQAPGKGLEWVADIAYDGSTKYYADSVKGRFTISRDNAKNSLYLQMNSLRAEDTAVYYCARDAVAGEGYFDLWGRGTLVTVSSGGGGSGGGGSGGGGSQSALTQDPAVSVALGQTVRITCQGDSLRSYYASWYQQLPGTAPKLLIYRNNQRPSGVPDRFSGSKSGTSASLAISGLRSEDEADYYCAAWDDSLSAWVFGGGTKLTVLGA
B2: the “IC50 (µg/ml), proliferation test on the line ERY-1, three days” value in test [2] was 0.35 µg/mL.

B3: F12CH (other)
scFv: B2 scFv
notes: Bivalent dimer of the scFv 3TF12, about 55 kDa, made in bacteria, held by a bond that DTT reduces; no Fc; also called anti-TfR F12CH; 3TF12 in the scFvCH format; not shown: tail from the bacterial vector pSYN-HIS-CYS (histidine tag, cysteine for dimerisation)
Consider B3, for which the “IC50 (µg/ml), proliferation test on the line ERY-1, three days” value in test [2] came to 0.1 µg/mL. Moreover, in test [3], the binding result is listed as “binds”.

B4: F12-Fc (Fc fusion)
chain: B2 scFv
notes: Homodimer of about 110 kDa (2 x 55 kDa), made in CHO cells; also called scFv-F12-Fc; antibody F12 in the format scFv-Fc; not shown: constant CH2 and CH3 domains of a human IgG1 (vector pFuse-hG1)
For B4, in test [4], the binding result is “binds”.

B5: scFv-3TG9 (scFv)
scFv: QVQLVESGGGLVEPGGSLRLSCAASGFTFSNYAINWVRQAPGKGLEWVANIHHDGNGKYYVDSVEGRFTISRDNAKNSLYLQMDSLRAEDTAIYYCARDGYGGYLDLWGQGTLVTVSSGGGGSGGGGSGGGGSSELTQDPAVSVALGQTVRITCQGDSLRSYYASWYQQKPGQAPVLVIYGKNNRPSGIPDRFSGSGSGNTASLTITGAQAEDEADYYCAAWDDSLSGPVFGGGTKVTVLG
notes: as for B1
On to B5, for which, in test [1], the binding result is listed as “binds”.

B6: scFv-3TF2 (scFv)
scFv: QVQLQQSGGGVVQPGGSLRLSCAASEFTFSASGMHWVRQAPGKGLEWMAFIAYDGNQKFYADSVKGRFTISRDNSKNTLYLQMDSLRGEDTAVYYCAKEMQREGYFDYWGQGTLVTVSSGGGGSGGGGSGGGGSNFMLTQDPAVSVALGQTVRITCQGDSLRSYYASWYQQKPGQAPVLVIYGKNNRPSGIPDRFSGSKSGNSASLDISGLQSEDEADYYCATWDDNLSGPIFGGGTKVTVLG
notes: as for B1
Consider B6, for which the binding result in test [1] is recorded as “binds”.
